Test results: publication PMC3024946, “Hydroxyproline-containing collagen analogs trigger the release and activation of collagen-sequestered proMMP-2 by competition with prodomain-derived peptide P33-42” (Fibrogenesis & Tissue Repair, 2011)

Key:
Set-up in all cases: species or system human
ProMMP-9 = assay: Solid-phase binding of [125I]-proMMP-9 to immobilized collagens/peptides (microwells); conditions: ProMMP-9, 2 ng/well; coated wells; 4°C, 2 h; residual radioactivity; mean ± SD, at least five experiments in triplicate
Experimental: (§1) Human recombinant proMMPs and in vitro activated MMPs were obtained from Invitek and were labeled with the [^125I]-Bolton-Hunter reagent according to the manufacturer's instructions (PerkinElmer, Rodgau, Germany) before the buffer was exchanged for phosphate-buffered saline (PBS) with 0.05% (vol/vol) Tween 20 by gel filtration as described previously. Specific radioactivity for [^125I]-MMPs was 3-9 × 10^4 cpm/ng. Precipitation with 10% (wt/vol) trichloroacetic acid and 200 μg of BSA recovered 96% to 100% of protein-bound radioactivity. Aliquots of labeled MMPs were frozen and stored at -80°C. […]
(§2) The following collagen analogs and control peptides were synthesized as described previously: (GPO)10, H-Gly-Cys-Hyp-(Gly-Pro-Hyp)10-Gly-Cys-Hyp-Gly-NH2; (GPP)10, H-Gly-Cys-Pro-(Gly-Pro-Pro)10-Gly-Cys-Pro-Gly-NH2; and GAP, H-Gly-Ala-Cys-(Gly-Ala-Pro)5-Gly-Phe-Hyp-Gly-Glu-Arg-(Gly-Ala-Pro)5-NH2. […] Graphs were calculated from the primary data using a custom fitting program written by D.A. Slatter (Department of Biochemistry, University of Cambridge, Cambridge, UK [48]) to model different possible transitions. […]
(§3) ProMMP-2 and proMMP-9 or actMMP-2 and actMMP-9 were bound to nitrocellulose and polystyrene-immobilized native collagens, CI chains, CB peptides or structural analogs. […] Membranes were washed again and air-dried, and bound MMP was monitored by autoradiography. […]

ActMMP-9 = assay: Solid-phase binding of [125I]-actMMP-9 to immobilized collagens/peptides (microwells); conditions: ActMMP-9, 2 ng/well; coated wells; 4°C, 2 h; residual radioactivity; mean ± SD, at least five experiments in triplicate
Experimental: as §1, §2, §3

ActMMP-2 = assay: Solid-phase binding of [125I]-actMMP-2 to immobilized collagens/peptides (microwells); conditions: ActMMP-2, 2 ng/well; coated wells; 4°C, 2 h; residual radioactivity; mean ± SD, at least five experiments in triplicate
Experimental: as §1, §2, §3

ProMMP-2 = assay: Solid-phase binding of [125I]-proMMP-2 to immobilized collagens/peptides (microwells); conditions: ProMMP-2, 2 ng/well; coated wells; 4°C, 2 h; residual radioactivity; mean ± SD, at least five experiments in triplicate
Experimental: as §1, §2, §3

Binding of [125I]-MMPs (ProMMP-9): 45.0 ± 2.0 % of maximum control | Binding of [125I]-MMPs (ActMMP-9): 5.0 ± 0.4 % of maximum control | Binding of [125I]-MMPs (ActMMP-2): 14.3 ± 5.8 % of maximum control | Binding of [125I]-MMPs (ProMMP-2): 40.0 ± 5.0 % of maximum control
B1: CIII: native human collagen type III (protein)
chain: QQEAVEGGCSHLGQSYADRDVWKPEPCQICVCDSGSVLCDDIICDDQELDCPNPEIPFGECCAVCPQPPTAPTRPPNGQGPQGPKGDPGPPGIPGRNGDPGIPGQPGSPGSPGPPGICESCPTGPQNYSPQYDSYDVKSGVAVGGLAGYPGPAGPPGPPGPPGTSGHPGSPGSPGYQGPPGEPGQAGPSGPPGPPGAIGPSGPAGKDGESGRPGRPGERGLPGPPGIKGPAGIPGFPGMKGHRGFDGRNGEKGETGAPGLKGENGLPGENGAPGPMGPRGAPGERGRPGLPGAAGARGNDGARGSDGQPGPPGPPGTAGFPGSPGAKGEVGPAGSPGSNGAPGQRGEPGPQGHAGAQGPPGPPGINGSPGGKGEMGPAGIPGAPGLMGARGPPGPAGANGAPGLRGGAGEPGKNGAKGEPGPRGERGEAGIPGVPGAKGEDGKDGSPGEPGANGLPGAAGERGAPGFRGPAGPNGIPGEKGPAGERGAPGPAGPRGAAGEPGRDGVPGGPGMRGMPGSPGGPGSDGKPGPPGSQGESGRPGPPGPSGPRGQPGVMGFPGPKGNDGAPGKNGERGGPGGPGPQGPPGKNGETGPQGPPGPTGPGGDKGDTGPPGPQGLQGLPGTGGPPGENGKPGEPGPKGDAGAPGAPGGKGDAGAPGERGPPGLAGAPGLRGGAGPPGPEGGKGAAGPPGPPGAAGTPGLQGMPGERGGLGSPGPKGDKGEPGGPGADGVPGKDGPRGPTGPIGPPGPAGQPGDKGEGGAPGLPGIAGPRGSPGERGETGPPGPAGFPGAPGQNGEPGGKGERGAPGEKGEGGPPGVAGPPGGSGPAGPPGPQGVKGERGSPGGPGAAGFPGARGLPGPPGSNGNPGPPGPSGSPGKDGPPGPAGNTGAPGSPGVSGPKGDAGQPGEKGSPGAQGPPGAPGPLGIAGITGARGLAGPPGMPGPRGSPGPQGVKGESGKPGANGLSGERGPPGPQGLPGLAGTAGEPGRDGNPGSDGLPGRDGSPGGKGDRGENGSPGAPGAPGHPGPPGPVGPAGKSGDRGESGPAGPAGAPGPAGSRGAPGPQGPRGDKGETGERGAAGIKGHRGFPGNPGAPGSPGPAGQQGAIGSPGPAGPRGPVGPSGPPGKDGTSGHPGPIGPPGPRGNRGERGSEGSPGHPGQPGPPGPPGAPGPCCGGVGAAAIAGIGGEKAGGFAPYYG
